Measured values from publication PMC12603982 (Angewandte Chemie (International Ed. in English), 2025).
Positions of bridges follow the written chain, without caps; N, C: chain ends. Non-standard residues stand in square brackets, D forms with d. Groups on a side chain read outwards from the residue. Primed or numbered codes have the meaning given here. No end group written: not given here. εdLys = D-Lys linked through its epsilon amine (k^ε); PEG5′ = PEG5 spacer, as named in the construct; Cy3s = Cy3s fluorophore, as named; Cy5s = Cy5s fluorophore, as named; Orn = NCCC[C@H](N)C(=O)O; Mpa = O=C(O)CCS

T1: human vasopressin V1b receptor (hV1bR) (human, UniProt P47901 1-424)
T1 construct: vasopressin V1b receptor, human; in membrane preparations; source: HEK293, stably expressing; membrane preparations
T1 sequence (looked up): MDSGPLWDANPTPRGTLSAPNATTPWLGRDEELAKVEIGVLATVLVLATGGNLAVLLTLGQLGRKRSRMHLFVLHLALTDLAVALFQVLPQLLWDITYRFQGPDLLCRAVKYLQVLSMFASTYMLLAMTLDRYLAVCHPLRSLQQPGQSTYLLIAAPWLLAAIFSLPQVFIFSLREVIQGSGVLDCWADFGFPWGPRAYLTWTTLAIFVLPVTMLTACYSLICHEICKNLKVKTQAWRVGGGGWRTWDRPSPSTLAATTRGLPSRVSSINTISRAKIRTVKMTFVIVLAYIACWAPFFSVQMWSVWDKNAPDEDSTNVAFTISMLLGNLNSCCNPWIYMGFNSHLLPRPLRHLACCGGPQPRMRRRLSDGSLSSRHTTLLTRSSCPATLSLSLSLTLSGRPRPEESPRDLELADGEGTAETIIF

T2: human oxytocin receptor (hOTR) (human, UniProt P30559 1-389)
T2 construct: oxytocin receptor, human; in membrane preparations or on cells; constructs are in the Supporting Information; source: HEK293, stably expressing; membrane preparations (radioligand assay); free-floating cells (FACS)
T2 sequence (looked up): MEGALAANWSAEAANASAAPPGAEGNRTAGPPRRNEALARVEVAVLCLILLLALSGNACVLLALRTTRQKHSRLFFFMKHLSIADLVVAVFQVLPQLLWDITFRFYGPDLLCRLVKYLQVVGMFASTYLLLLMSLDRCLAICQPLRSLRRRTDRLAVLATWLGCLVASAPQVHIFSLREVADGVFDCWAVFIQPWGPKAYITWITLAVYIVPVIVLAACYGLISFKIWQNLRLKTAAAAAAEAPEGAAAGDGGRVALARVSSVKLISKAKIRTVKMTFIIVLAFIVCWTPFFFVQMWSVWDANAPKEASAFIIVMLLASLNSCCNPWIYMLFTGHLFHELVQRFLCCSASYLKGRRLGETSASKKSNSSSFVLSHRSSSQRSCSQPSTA

T3: murine vasopressin V1b receptor (mV1bR) (murine, UniProt Q9WU02 1-421)
T3 construct: vasopressin V1b receptor, murine; in membrane preparations; source: HEK293, transiently expressing; membrane preparations
T3 sequence (looked up): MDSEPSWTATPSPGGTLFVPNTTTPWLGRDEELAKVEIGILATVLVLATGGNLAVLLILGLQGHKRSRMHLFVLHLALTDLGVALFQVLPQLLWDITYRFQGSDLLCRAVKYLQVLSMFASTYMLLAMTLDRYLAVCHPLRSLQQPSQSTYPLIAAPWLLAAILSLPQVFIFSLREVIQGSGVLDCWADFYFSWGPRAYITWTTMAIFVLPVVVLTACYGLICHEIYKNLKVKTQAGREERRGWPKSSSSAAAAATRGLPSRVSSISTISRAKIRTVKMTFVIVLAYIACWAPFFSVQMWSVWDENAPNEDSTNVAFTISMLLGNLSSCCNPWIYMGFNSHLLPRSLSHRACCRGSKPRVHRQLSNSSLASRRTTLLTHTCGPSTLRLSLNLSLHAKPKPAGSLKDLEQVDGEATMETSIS

T4: murine oxytocin receptor (mOTR) (murine, UniProt P97926 1-388)
T4 construct: oxytocin receptor, murine; in membrane preparations; source: HEK293, transiently expressing; membrane preparations
T4 sequence (looked up): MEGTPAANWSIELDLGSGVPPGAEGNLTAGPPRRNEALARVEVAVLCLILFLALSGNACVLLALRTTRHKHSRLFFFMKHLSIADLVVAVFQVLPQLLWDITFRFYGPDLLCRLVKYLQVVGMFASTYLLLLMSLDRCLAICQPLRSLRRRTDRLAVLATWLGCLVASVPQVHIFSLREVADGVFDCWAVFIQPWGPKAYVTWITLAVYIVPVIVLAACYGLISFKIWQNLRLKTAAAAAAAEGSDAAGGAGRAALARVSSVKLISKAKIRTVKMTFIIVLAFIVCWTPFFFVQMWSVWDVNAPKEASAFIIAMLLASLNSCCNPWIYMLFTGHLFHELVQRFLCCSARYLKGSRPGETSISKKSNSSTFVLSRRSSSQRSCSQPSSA


How the values were obtained:
Settings in all cases: one partner purified
[1] = target: T5, human vasopressin V1a receptor (hV1aR) (human, UniProt P37288 1-418); test: radioligand binding; displacement of [3H]-OT or [3H]-VP from membrane preparations of HEK293 cells stably expressing the human receptor; dose-response curves in duplicates, at least three independent experiments; Ki >10 µM assigned where <25% of the radioligand was displaced at 10 µM
T5 construct: vasopressin V1a receptor, human; in membrane preparations; source: HEK293, stably expressing; membrane preparations
T5 sequence (P37288 whole entry): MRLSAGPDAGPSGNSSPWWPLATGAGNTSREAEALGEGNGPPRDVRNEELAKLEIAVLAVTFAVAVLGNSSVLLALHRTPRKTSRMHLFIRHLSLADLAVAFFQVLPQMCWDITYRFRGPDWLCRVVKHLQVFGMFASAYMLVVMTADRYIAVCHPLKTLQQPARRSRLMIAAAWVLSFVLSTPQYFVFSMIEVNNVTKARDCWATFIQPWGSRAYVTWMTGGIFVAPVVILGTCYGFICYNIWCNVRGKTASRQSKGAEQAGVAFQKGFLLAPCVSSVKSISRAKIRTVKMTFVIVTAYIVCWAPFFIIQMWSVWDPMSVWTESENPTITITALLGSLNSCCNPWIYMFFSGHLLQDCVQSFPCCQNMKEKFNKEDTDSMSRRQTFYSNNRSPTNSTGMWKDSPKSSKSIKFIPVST

[2] = target: T1, human vasopressin V1b receptor (hV1bR); test: as above
[3] = target: T2, human oxytocin receptor (hOTR); test: as above
[4] = target: T3, murine vasopressin V1b receptor (mV1bR); test: radioligand binding; displacement of [3H]-OT or [3H]-VP from membrane preparations of HEK293 cells transiently expressing the murine receptor; dose-response curves in duplicates, at least three independent experiments; Ki >10 µM assigned where <25% of the radioligand was displaced at 10 µM
[5] = target: T4, murine oxytocin receptor (mOTR); test: as above
[6] = target: T6, murine vasopressin V2 receptor (mV2R) (murine, UniProt O88721 1-371); test: as above
T6 construct: vasopressin V2 receptor, murine; in membrane preparations; source: HEK293, transiently expressing; membrane preparations
T6 sequence (O88721 whole entry): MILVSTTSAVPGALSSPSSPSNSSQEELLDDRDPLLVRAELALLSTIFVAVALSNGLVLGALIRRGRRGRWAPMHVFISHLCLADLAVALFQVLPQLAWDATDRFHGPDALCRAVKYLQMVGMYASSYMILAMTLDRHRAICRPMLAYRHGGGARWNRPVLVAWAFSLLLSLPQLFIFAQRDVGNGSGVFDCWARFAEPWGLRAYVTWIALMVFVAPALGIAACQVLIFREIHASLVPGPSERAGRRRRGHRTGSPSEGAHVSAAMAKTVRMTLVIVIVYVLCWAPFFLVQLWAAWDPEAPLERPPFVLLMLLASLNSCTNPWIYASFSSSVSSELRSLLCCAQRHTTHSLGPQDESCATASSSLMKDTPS

[7] = target: T7, murine vasopressin V1a receptor (mV1aR) (murine, UniProt Q62463 1-423); test: as above
T7 construct: vasopressin V1a receptor, murine; in membrane preparations; source: HEK293, transiently expressing; membrane preparations
T7 sequence (Q62463 whole entry): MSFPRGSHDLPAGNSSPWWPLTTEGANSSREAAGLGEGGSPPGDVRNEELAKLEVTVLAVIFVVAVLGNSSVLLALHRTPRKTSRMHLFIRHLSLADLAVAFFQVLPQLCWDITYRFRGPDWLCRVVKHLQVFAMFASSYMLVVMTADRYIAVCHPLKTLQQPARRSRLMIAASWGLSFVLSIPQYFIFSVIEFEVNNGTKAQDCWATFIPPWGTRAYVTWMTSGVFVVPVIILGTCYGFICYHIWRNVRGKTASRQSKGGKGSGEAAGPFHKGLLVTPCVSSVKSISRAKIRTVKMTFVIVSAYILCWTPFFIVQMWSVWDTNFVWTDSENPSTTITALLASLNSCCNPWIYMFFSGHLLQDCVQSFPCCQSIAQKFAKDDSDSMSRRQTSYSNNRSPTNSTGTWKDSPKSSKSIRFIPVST

Binder	Ki [1] [nM]	Ki [2] [nM]	Ki [3] [nM]	Ki [4] [nM]	Ki [5] [nM]	Ki [6] [nM]	Ki [7] [nM]
[Mpa]INYQCP[Orn]([dD-PEG5′-εdLys-Cy3s])G (disulfide 1-6 (inferred)) [scrambled cyclic tracer dCINYQCP(Orn)G‐[d‐PEG5‐k^ε‐Cy3s]^8]	> 10000	> 10000	> 10000	> 10000	> 10000	> 10000	> 10000
[Mpa]YIQNCP[Orn]G (disulfide 1-6; not fully specified (residue 8)) [d(Orn)^8OT‐[d‐PEG5‐k^ε‐AF488]^8]	1430	1800	22.6	–	–	–	–
[Mpa]YIQNCP[Orn]([PEG5′-εdLys-Cy3s])G (disulfide 1-6) [d(Orn)^8OT‐[PEG5‐k^ε‐Cy3s]^8]	21	242	1.4	–	–	–	–
[Mpa]YIQNCP[Orn]([dD-PEG5′-εdLys-TAMRA])G (disulfide 1-6) [d(Orn)^8OT‐[d‐PEG5‐k^ε‐TAMRA]^8]	631	932	7.5	–	–	–	–
[Mpa]YIQNCP[Orn]([PEG5′-PEG5′-εdLys-Cy3s])G (disulfide 1-6) [d(Orn)^8OT‐[PEG5‐PEG5‐k^ε‐Cy3s]^8]	22	199	1.5	–	–	–	–
[Mpa]YIQNCP[Orn]([εdLys-εdLys-Cy3s])G (disulfide 1-6) [d(Orn)^8OT‐[k^ε‐k^ε‐Cy3s]^8]	3.3	10	0.8	–	–	–	–
[Mpa]YIQNCP[Orn]([dD-PEG5′-Cy5s])G (disulfide 1-6) [d(Orn)^8OT‐[d‐PEG5‐Cy5s]^8]	553	1320	6	–	–	–	–
CYFQNCPRG (vasopressin (arginine at position 8), endogenous nonapeptide; numbers count on: the mature nonapeptide) [Vasopressin (VP)]	–	–	–	0.4	8.1	–	1
[Mpa]YIQNCP[Orn]([PEG5′-εdLys-Cy5s])G (disulfide 1-6) [d(Orn)^8OT‐[PEG5‐k^ε‐Cy5s]^8]	11	176	1.2	–	–	–	–
CYIQNCPLG (oxytocin, endogenous nonapeptide ligand of OTR; numbers count on: the mature nonapeptide) [Oxytocin (OT)]	–	–	–	416	–	1570	1400
[Mpa]YIQNCP[Orn]([PEG5′-Cy5s])G (disulfide 1-6) [d(Orn)^8OT‐[PEG5‐Cy5s]^8]	70	376	1.3	–	–	–	–
[Mpa]YIQNCP[Orn](Cy5s)G (disulfide 1-6) [d(Orn)^8OT‐[Cy5s]^8]	23	86	0.9	–	–	–	–
[Mpa]YIQNCP[Orn]([PEG5′-Cy3s])G (disulfide 1-6) [d(Orn)^8OT‐[PEG5‐Cy3s]^8]	80	372	1.5	–	–	–	–
[Mpa]YIQNCP[Orn]G (disulfide 1-6) [d(Orn)^8OT]	0.4	0.8	0.7	–	–	–	–
